The results in this text go back to CN108727489A (GUANGZHOU 8TH PEOPLES HOSPITAL; UNIV TSINGHUA, dated 2018).

In test [1] the target is 寨卡病毒GZ01株的E蛋白 (on virus particles) (Zika virus GZ01 strain). Put plainly: cell-based or functional assay.
For test [2], the target named is T1, E-His 6 融合蛋白 (Zika virus, UniProt A0A024B7W1 292-693).
T1 construct: Expressed in 293T cells, purified on a Ni column and by gel filtration; Used as the ELISA coating antigen; also called E-His6 fusion protein; 寨卡病毒的E蛋白
Kind of test: ELISA screen of memory B cell culture supernatants on coated E-His6 fusion protein.

T1 sequence (A0A024B7W1 292-693, tags left off): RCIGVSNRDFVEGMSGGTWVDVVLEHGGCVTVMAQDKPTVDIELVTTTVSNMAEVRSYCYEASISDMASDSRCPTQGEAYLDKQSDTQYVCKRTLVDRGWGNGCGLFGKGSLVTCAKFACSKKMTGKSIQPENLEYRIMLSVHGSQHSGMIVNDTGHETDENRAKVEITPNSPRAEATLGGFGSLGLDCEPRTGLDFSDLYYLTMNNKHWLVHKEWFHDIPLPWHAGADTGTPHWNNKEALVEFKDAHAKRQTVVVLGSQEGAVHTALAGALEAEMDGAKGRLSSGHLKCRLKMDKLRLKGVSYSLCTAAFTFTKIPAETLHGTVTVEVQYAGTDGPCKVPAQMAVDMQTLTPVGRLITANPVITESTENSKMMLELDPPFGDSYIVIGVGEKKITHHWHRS

B1: ZK2C2 (antibody, human IgG1, lambda, V domains shown)
VH: EVQLLESGGGVVQPGRSLRLSCAGSGFTFSSYGMHWVRQAPGKGLEWVAVISYDGSNKYYVDSVKGRFTISRDNSRNTLYLQMNNLKAEDTAVYYCAKGHLIDWGQGTLVTVSS
VL: QLVLTQPPSASGTPGQRVTISCSGSSSNIGRNIVNWYQQFPGTTPKLLIYGTNQRPSGVPDRFSGSKSGTSASLAISGLQSEDETNYYCAAWDDSLNGWLFGGGTKLTVLG
notes: also called 单克隆抗体ZK2C2; ZK2C2抗体
Turning to B1, the “中和百分比为50%时的抗体浓度 (IC50), plaque reduction on Vero cells” value in test [1] stood at 3.8 µg/mL. Besides, the binding result in test [2] was “binds”.
